Patent publication US20100086958A1, “NOVEL ENZYME” (priority 2008, published 2010)

Experiments:
[1] = Steady state kinetics for NAD^+ (FDH-catalysed formate oxidation); type: biochemical; conditions: cofactor NAD^+, 0.18M formate
Protocol: BcenFDH1 (Bsp184FDH) and BspFDH2 (Bsp383FDH) catalyzed oxidation of formate to CO2 was monitored by UV/Vis spectrophotometry in a 96-well plate format. A series of eight solutions of formate (0-200 mM) were prepared by successive dilutions of a stock solution of 0.5 M sodium formate in 0.1 M sodium phosphate buffer, pH 7.0. From this series, 170 μL was transferred into wells of the 96-well plate. 10 μL of the FDHs from a stock solution (64.1 μM for BcenFDH1 (Bsp184FDH) and 78.0 μM for BspFDH2 (Bsp383FDH)) were added into each well and equilibrated for 3 min at 30° C. The reaction was initiated by addition of 20 μL of NAD^+ or NADP^+ solution from a freshly prepared stock (10 mM) using an 8-channel pipette. The plate was then immediately placed into the plate reader. The plate was shaken for 5 s to ensure thorough mixing, and then time-based measurements were recorded every 15 s for 10 min. The rate of formate oxidation was calculated using an extinction coefficient of 3.38 mM^−1 (for 200 μL), which was determined using NADH standards. Km and Vmax values were obtained by non-linear regression to the Michaelis-Menten equation (Eq.1 below) using Origin v7 (Microcal Software Inc.).
Similar procedure were used for determination of Michaelis-Menten parameters for NAD^+ and NADP^+. A series of eight solutions of cofactor (0-75 mM) were prepared by successive dilutions of stock solutions. […] of sodium formate solutions (180 mM in well) were transferred into wells of the 96-well plate. 10 μL of the FDHs from a stock solution (64.1 μM for BcenFDH1 (Bsp184FDH) and 78.0 μM for BspFDH2 (Bsp383FDH)) were added into each well and equilibrated for 3 min at 30° C. The reaction was initiated by addition of 20 μL of NAD^+ or NADP^+ solutions using an 8-channel pipette. The plate was then immediately placed into the plate reader. The plate was shaken for 5 s to ensure thorough mixing, and then time-based measurements were recorded every 15 s for 10 min. The rate of formate oxidation was calculated using an extinction coefficient of 3.38 mM^−1 (for 200 μL), which was determined using NADH standards. Km and Vmax values were obtained by non-linear regression to the Michaelis-Menten equation as before.

[2] = Assay of enzyme activity (specific activity, U/mg); type: biochemical; conditions: unit = μmol formate oxidized per min in the presence of co-factor; This work
Protocol: The reaction was initiated by addition of NAD^+. The total volume of the reaction mixture was 1 mL. Specific activity (U/mg enzyme) was defined as number of μmols of product formed per mg enzyme per minute.

[3] = Thermal stability study (remaining activity after incubation); type: physicochemical
Protocol: FIGS. 19 and 20—show the effect of temperature on the stability of the Bsp184FDH and Bsp383FDH enzymes. In FIG. […] In FIG. 20 (1) Bsp184FDH (2.1 mg/mL) and (2) Bsp383FDH (1.5 mg/mL) were incubated at 60° C. and 70° C. for 48 hours period in a similar way. Remaining activities were assayed under standard assay conditions and were expressed as the percentage of activities.
Thermal stability for purified wild-type BcenFDH1 (Bsp184FDH) and BspFDH2 (Bsp383FDH) catalyzed formate oxidation were investigated by Uv/V is spectrophotometry in a 96-well plate format. The results are illustrated in FIGS. 19 and 20. […] In addition, time based-thermal stability for purified wild-type BcenFDH1 (Bsp184FDH) and BspFDH2 (Bsp383FDH) catalyzed formate oxidation were also investigated at 60° C. and 70° C. over 48 hours in a similar way. The samples were spun down briefly to remove any precipitations before use. 10 μL of heat-treated BcenFDH1 and BspFDH2 were added into each well and equilibrated for 3 min at 30° C. after adding 170 μL of 200 mM sodium formate (dissolving in 50 mM sodium phosphate buffer, pH 7.0.) The reaction was initiated by addition of 20 μL of NADP^+ solution from a freshly prepared stock of 20 mM using an 8-channel pipette. The plate was then immediately placed into the plate reader. The plate was shaken for 5 seconds to ensure thorough mixing. Time-based measurements were recorded every 10 s for 10 min. The rate of formate oxidation was calculated using the absorption coefficient of 3.38 mM^−1 (for 200 μL).

B1: Bsp383FDH: wild type FDH from Burkholderia sp 383, Seq ID No: 1, C-terminal His-tagged (protein, listed as Burkholderia sp.)
chain: MATVLCVLYPDPVDGYPPRYVRDAIPVITHYADGQTAPTPAGPPGFQPGELVGCVSGALGLRGYMEAHGHTLIVTSDKDSPDSEFERRLPEADVVISQPFWPAYLTAERIARAPKLKLALTAGIGSDHVDLDAAARARITVAEVTGSNSISVAEHVVMTTLALVRNYLPSHAIAQQGGWNIADCVSRSYDVEGMHFGTVGAGRIGLAVLRRLKPFGLQLHYTQRHRLDASIEQELGLTYHADAASLASAVDIVNLQIPLYPSTEHLFDAAMIARMKRGAYLINTARAKLVDRDAVVNALTSGHLAGYGGDVWFPQPAPADHPWRTMPFNGMTPHISGTSLSAQARYAAGTLEILQCWFDGKPIRNEYLIVDGGTLAGTGAQSYRLT
modifications: C-terminal His tag
- Km [1]: 7.6 ± 2.1 mM
- kcat NAD^+ [1]: 0.817 ± 0.13 s⁻¹
- activity with NADP^+ [2]: 8.64 U/mg
- activity with NAD^+ [2]: 1.09 U/mg
- temperature at which the enzymes denature [3]: 80 °C
- activity lost upon incubation ([3]; 55° C. for 2 hours): no activity was lost
- stability at room temperature ([3]; room temperature for weeks): stable
